For data set [1], the target named is T1, reporter peptide 1 (Example 10), labeled with fluorescein (labeled with fluorescein (site not stated)).
T1 construct: Heterodimer partner in the thrombin assay
T1 peptide: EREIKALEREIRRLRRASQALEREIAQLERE
In words: FRET (fluorescein/rhodamine), 5 µM total peptide, 1:1.

Data set [2] deals with the molecule itself. In words: FRET between the fluorescein- and rhodamine-labelled forms of the same peptide (homodimer).
For data set [3], the target named is T2, peptide C labelled with rhodamine (CR) (not fully specified; N-terminal acetyl; C-terminal amide; labelled with rhodamine (or vice versa with fluorescein)).
T2 construct: Artificial designer peptide, one partner of a heterodimeric coiled coil
T2 peptide: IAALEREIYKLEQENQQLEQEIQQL
In words: FRET between fluorescein- and rhodamine-labelled peptides.

Data set [4] concerns the target T3, peptide 1 (Example 8), labeled with fluorescein (labeled with fluorescein (site not stated)).
T3 construct: Heterodimer partner in the chymotrypsin assays
T3 peptide: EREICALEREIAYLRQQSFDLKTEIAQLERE
In words: FRET (fluorescein/rhodamine) and fluorescence polarization (fluorescein/biotin with streptavidin), 6 µM total peptide, 1:1.

Data set [5] concerns the molecule itself. In words: FRET (fluorescein/rhodamine) and fluorescence polarization (fluorescein/biotin), 6 µM total peptide, 6:1. (Polarisation of emitted light reports the rotation of a fluorescent probe.)

Where no end group is shown, it is not given here. fluorescein or rhodamine = not defined here

B1: reporter peptide 2 (Example 10), labeled with rhodamine (peptide)
peptide: LRQRIQCLRYRIRRLRRASQALRQRIAQLKQR
modifications: also: rhodamine label, site not given here
notes: Heterodimer partner in the thrombin assay
For B1, the binding result in data set [1] is reported as “binds”.

B2: Peptide 2 (Example 3, TEV protease cleavage site) (peptide)
peptide: RMKQLEDKVENLYSQSYHLENEVAC(fluorescein or rhodamine)LKKLVGER
modifications: reading uncertain
notes: GCN4-derived homodimeric reporter; The fluorescein- and rhodamine-labelled forms are written as one molecule
On to B2, for which the binding result in data set [2] is given as “binds”.

B3: peptide B labelled with fluorescein (BF) (peptide)
peptide: IAALRERICYLRERNQQLRQRIQQL
modifications: not fully specified; also: fluorescein label, site not given here
notes: Artificial designer peptide, one partner of a heterodimeric coiled coil
B3: in data set [3], the binding result is “binds”.

B4: peptide 2 (Example 8), labeled with rhodamine (FRET) or biotin (FP) (peptide)
peptide: LRQRIQCLRQKIAYLRQQSFDLKTQIAQLRQR
modifications: also: rhodamine or biotin label, site not given here
notes: Heterodimer partner in the chymotrypsin assays; Both labelled forms are written as one molecule
With B4, the binding result in data set [4] is given as “binds”.

B5: reporter peptide (Example 9, TEV) (peptide)
peptide: KGRMRCLEDRVENLYSQSYHLENEVARLRRLVGELAAK
modifications: not fully specified; also: homodimer
notes: Forms a homodimer; All labelled forms are written as one molecule (6:1 ratio R:F or biotin:F)
On to B5, for which the binding result in data set [5] is given as “binds”.

B6: Peptide 4 (Example 5, caspase 2, 3, 7 site) (peptide)
peptide: RMKQLEDKVEELLDENDHLENEVACLKKLVGER
modifications: also: fluorescein or rhodamine label, site not given here
notes: GCN4-derived homodimeric reporter; Both labelled forms are written as one molecule
Consider B6, for which, in data set [2], the binding result is on record as “binds”.

For the origin of these results see patent publication US6828106 (dated 2004).
